Experiment: soluble fraction after stress (log2 fold change); higher = more stays soluble; pooled small domains, quantitative proteomics
Conditions: stress: 50 degC
How it was run: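 Custom libraries of small protein domains were pooled and measured in a high-throughput format, with quantitative proteomics as the read-out. Each library was stressed at 50°C. The value is the log2 fold change in the amount of each protein that stays soluble after stress, used as a measure of aggregation propensity; higher values mean more of the protein stays soluble.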

Row | Sequence | soluble fraction (log2)
1 | HMPPRFVPATGADLRRWLDVSGLTAEAAGDLLGVSGARFRQWLSRYRSAPLPDPVRALLVALLRP | -0.155
2 | HMQQYLDAYDKALAFGIAMNKLPSYENLTLDDKEDVDKLKEIYDGMSNYEKTFVAKDFTDKLDRYVKRIE | -0.0367
3 | HMGGLSAEQKNGIQSVLKNFDPKNLTSADAKSITSEFKKLGVQPGKDLETTMAASGFDAKEVGRLAF | 0.0781
4 | HMKEDSTIIERIISNLSSASLKTQKAFEYKLTDLMFRFSEGEYEWSSAMEVIREELLPFLNK | 0.0862
5 | HMFLDKDTLNQLYRFGIALTGNEQDSQDVLHTAIERFLRNKPQQINQQAAYIRTIMRNYWYDELRKLKTQ | -1.61
6 | HMETLGADLRALRKSRGLTLLDMAESLGRSVGWLSQVERDLSDPSISDLREIAELLGVPISMLFRH | -2.86
7 | HMATIIGSIGIVTQKVGLTGVPGRVYVNNESWAAISANGKEIENDTQVIVVKIDGATLIIEKKG | -1.47
8 | HMNMMESNLFAVYDNDDIVKTLRQGAMEIDSLIRLMGKSSAEVLEKLTTMELQGIITRSGNIIALNN | -0.064
9 | HMIAASQVLRDARQRSRLTQAELGRRADVPQSVISAYESARREPSVDMLARLVAAAGFDLRIGLTP | -0.541
10 | HMEMTSREIIKRLEEDGWYHVKTTGDHYQMKHPTKPGKVTIVHPAKDLSIGTLRSIEKQSGVRL | -0.0157
11 | HMESLSHRQKSIVDWVQKNGYASIERMAEQFEVSAQTIRRDVIELSERRILQRHHGGASLPAG | -0.0143
12 | HMEQFDFTILRELRKRAGLSIGEVSAESGVSAAVISKLERNRTRAELDTLYRLARVFGITAAELLNLAEA | -2.06
13 | HMGASYSQFLDQVDSGNVQKVAFGGDMRGGTSQLTYTTRGGQSSTITAPFDRDLINVLRTKNVEIVQEEP | 0.139
14 | HMSVNEKVRLFRELNQWSQEEMAERMNMSVAGYAKIERGETNISLHKLKQIASVLQIDLLDLVS | -0.32
15 | HMNNLSEELNVTFPRTRDQLLNILHYVQHKYGYISKVSMQEIGNHIKMPVSEIYGTVTSYSEFKI | -1.54
16 | HMANPFQELTERELDVLRQVAAGKNNREIAEALFIGEKTVKTHISNILSKLHLADRTQAAVYAWQQGMM | -0.0277
17 | HMGKNIQAIRYKNNMTQDQVVAKLNLMGISITKSTYAKLETNRMNIKASELVALAKLFHTDINAFFSG | -3.24
18 | HMRSGEDESFSAGLLEYPHYTRPAEFEGHRIPDILTSGDHAKVDAWRQEMSEHITRERRPDLWEMYKKK | 0.0901
19 | HMILNNAKINTELNSLAEFTQRSLDSNTSEIGFYDYKKISYIASFATMKTTNWNVIIRAPINEFMGTVN | 0.101

Row | Sequence | soluble fraction (log2)
20 | HMSQRITYTEFVQMVKDDKVEKVEVGANQYNITPKSDDKTLVKMTYYTGFIKDENLLDLLNKHKVEIDGYI | 0.157
21 | HMGSYIGEAKAKEIALSHAGVSASQATFVRSQFEYDDGRAVYDVDFWSGNKEYDYEIDAKSGTIVSYDFD | -0.398
22 | HMKRTMVEAAMVAKLFNLTVRRIQQLTQDGVLTTELVDKKRRYDLLLTVQKYIAYLQEKVAK | -3.24
23 | HMTDSQLVEAENHVALRQAMAHLGPRERELIGLYYFEEQSQTQIAARFGVSQMQVSRWLTSAVGRIRGQMA | -0.00256
24 | HMEARYQLREVSLDGLRSGMILNADVLSTDGVLMARKGLEVSGLLRSRLEAFAKMERIEPTFKVLVPIAPP | -0.389
25 | HMISASDLQTYLKGMDYPARKEDLIVHAQRNNAPESVIAAIRQFSDRTYQSAADVSEEFGKI | 0.19
26 | HMEVAASEQRDNLWALARRVLSGEQYDVLYLRYVEDFSVAQIADVVGKTQTHVKVLLFRGRNNLGSRLRS | 0.199
27 | HMGNLASGAYEQIKRRILSLEYLPGSILQERGLAEELGISRTPVREAIHRLSQEGWLKINSRKNIRVR | -1.98
28 | HMNIDEIFLTKNEIYFSFEYQKKSQLDRYSKIISLDHRIDKNTAYAYANKKQFLNFINLNIDYKIIDNSF | -2.65
29 | HMLPITPGQKYKFVVKSAEEAAAIIRDKLGEMAQVISVRQVEGEGLARFLKSPKLEIIAQVPVA | -0.132
30 | HMKDRDISNAVLNILSKDSDHNYNYKQIASVLGVKDPFVRKRIVSVLAQLTKNGQLEEISRGKYQIKN | -0.618
31 | HMATYNEVLKRLIEERKRLGLSQQEMARLVHITQSNYSKVEKGLHRLSYEELKYLSKANVDIFYILT | 0.136
32 | HMQPDDELVRLLLIKIFNDKQLKVNPAVINYLLRRIDRSFESINNFVKKIDEFSLEKGRKITVNLVSGFF | -0.653
33 | HMKNTYTVVSGDTLWGIASRKLGGGSNWTKIYDANAATIESVANRRRGGRGSDHGHWIYPGTVLTI | -0.0158
34 | HMVITEQTVTVKYLYEDDTEAAPEHSETHKTGETFEIESPKIDGFTPDYELITGTIANDDLVYIVRYKTTP | -0.282
35 | HMGPASTGAHQLGLKPGDEVTHRAWGEGVVTSTTGEGDRAEAVVDFDAVGEKRLLLAWAPLER | 0.00864
36 | HMSNEKVVKFAQELLVDEERSAISPALISAKIDQVLMFKPAWNEGLDRDAVVNELVRRFSIW | -0.841
37 | HMVPTYEAYVGKEGLVVGTLRPAGTAEFDGERLDVVSEGEYLEAGTRVQIVRTEGRRIVVRKIN | 0.0504
38 | HMGDDVRKNILDVLSKFERVDITDLDSLELVRFYLEIEDIFDIEIKENDFYRLKSVDSIVDYIRNKSFF | -1.2

Reference: the domain aggregation screens of Martell et al. (2025)
